Reference: patent US20160280750A1 (NEWSOUTH INNOVATIONS, published 2016)

B1: Peptide I.D. 33 DLQDFFSSL (peptide)
peptide: DLQDFFSSL
B2: Peptide I.D. 24 QYLRLSHNE (peptide)
peptide: QYLRLSHNE
B3: Peptide I.D. 20 FNALQYLRL (peptide)
peptide: FNALQYLRL
B4: Peptide I.D. 31 SIDLQDFFS (peptide)
peptide: SIDLQDFFS
B5: Peptide I.D. 35 … (peptide)
peptide: DPCTTWCDA
modifications: not checked
B6: Peptide I.D. 34 LQDFFSSLI (peptide)
peptide: LQDFFSSLI
B7: Peptide I.D. 27 LNLRSIDLQ (peptide)
peptide: LNLRSIDLQ
B8: Peptide I.D. 36 RRRWRRLTV (peptide)
peptide: RRRWRRLTV
B9: Peptide I.D. 28 NLRSIDLQD (peptide)
peptide: NLRSIDLQD
B10: Peptide I.D. 15 EYFKRFNAL (peptide)
peptide: EYFKRFNAL
B11: Peptide I.D. 12 QLEDIRLDG (peptide)
peptide: QLEDIRLDG
notes: Opticin nonamer
B12: Peptide I.D. 7 KHTRRQLED (peptide)
peptide: KHTRRQLED
B13: Peptide I.D. 21 NALQYLRLS (peptide)
peptide: NALQYLRLS
B14: Peptide I.D. 19 RFNALQYLR (peptide)
peptide: RFNALQYLR
B15: Peptide I.D. 37 ARGQPGVMG (peptide)
peptide: ARGQPGVMG
B16: Peptide I.D. 8 HTRRQLEDI (peptide)
peptide: HTRRQLEDI
B17: Peptide I.D. 32 IDLQDFFSS (peptide)
peptide: IDLQDFFSS
B18: Peptide I.D. 6 HKHTRRQLE (peptide)
peptide: HKHTRRQLE
B19: Peptide I.D. 13 LEDIRLDGN (peptide)
peptide: LEDIRLDGN
B20: Peptide I.D. 17 FKRFNALQY (peptide)
peptide: FKRFNALQY
B21: Peptide I.D. 22 ALQYLRLSH (peptide)
peptide: ALQYLRLSH
B22: Peptide I.D. 11 RQLEDIRLD (peptide)
peptide: RQLEDIRLD
B23: Peptide I.D. 9 TRRQLEDIR (peptide)
peptide: TRRQLEDIR
B24: Peptide I.D. 14 DEYFKRFNA (peptide)
peptide: DEYFKRFNA
B25: Peptide I.D. 16 YFKRFNALQ (peptide)
peptide: YFKRFNALQ
B26: Peptide I.D. 30 RSIDLQDFF (peptide)
peptide: RSIDLQDFF
B27: Peptide I.D. 29 LRSIDLQDF (peptide)
peptide: LRSIDLQDF

Assays:
HLA-B*2705 = biological target: T1, HLA-B*2705 (human, UniProt P01889 25-302 at identity 0.93)); experiment: REVEAL MHC-peptide binding assay, incorporation into HLA-B*2705
T1 construct: MHC class I molecule assembled with candidate peptides in the REVEAL assay (ProImmune)
T1 MHC heavy: not shown

[1] = biological target: T2, HLA-B*2705 (human), P01889; experiment: as above
T2 chain: not shown

Binder	% Positive Control (REVEAL binding score) (HLA-B*2705)	% Positive Control (REVEAL binding score) (% of positive control) [1]
B1	0.35 % of positive control	
B2	0.5 % of positive control	
B3	1.81 % of positive control	
B4	0.26 % of positive control	
B5		2.18
B6	0.11 % of positive control	
B7	0.11 % of positive control	
B8	44 % of positive control	
B9	0.17 % of positive control	
B10	0.48 % of positive control	
B11	0 % of positive control	
B12	0.04 % of positive control	
B13	0.11 % of positive control	
B14	1.2 % of positive control	
B15	0 % of positive control	
B16	0.04 % of positive control	
B17	0.13 % of positive control	
B18	0 % of positive control	
B19	2.17 % of positive control	
B20	0.15 % of positive control	
B21	0.13 % of positive control	
B22	0.5 % of positive control	
B23	0.02 % of positive control	
B24	0.06 % of positive control	
B25	0.47 % of positive control	
B26	0.08 % of positive control	
B27	0.08 % of positive control	
